Test results as given in patent US20030138894A1 (Human Genome Sciences, published 2003).
Positions of bridges follow the written chain, without caps; N, C: chain ends. No end group written: not given here.

B1: ACE-2 binding polypeptide DDVCYSLIMADYCLDF (peptide)
peptide: DDVCYSLIMADYCLDF
modifications: not fully specified (bridges); cysteine pairing not given here
B2: ACE-2 binding polypeptide NWNCLGTNELQFCLDF (peptide)
peptide: NWNCLGTNELQFCLDF
modifications: not fully specified (bridges); cysteine pairing not given here
B3: ACE-2 binding polypeptide GSDCEWVNFTMFQMCISN (peptide)
peptide: GSDCEWVNFTMFQMCISN
modifications: not fully specified (bridges); cysteine pairing not given here
B4: ACE-2 binding polypeptide WEDCLWIGMMCVEF (peptide)
peptide: WEDCLWIGMMCVEF
modifications: not fully specified (bridges); cysteine pairing not given here
B5: ACE-2 binding polypeptide DDVCENADFAWLGWCMHF (peptide)
peptide: DDVCENADFAWLGWCMHF
modifications: not fully specified (bridges); cysteine pairing not given here
B6: ACE-2 binding polypeptide NDYCTVFTGALFCLDF (peptide)
peptide: NDYCTVFTGALFCLDF
modifications: disulfide 4-13 (inferred); not fully specified (N-terminus, C-terminus)
B7: ACE-2 binding polypeptide KFECMPSSLFCVDF (peptide)
peptide: KFECMPSSLFCVDF
modifications: not fully specified (bridges); cysteine pairing not given here
B8: ACE-2 binding polypeptide DQNCFAMYCFEF (peptide)
peptide: DQNCFAMYCFEF
modifications: not fully specified (N-terminus, C-terminus, bridges); cysteine pairing not given here
B9: ACE-2 binding polypeptide DDKCFGWAHFCFDF (peptide)
peptide: DDKCFGWAHFCFDF
modifications: not fully specified (bridges); cysteine pairing not given here
B10: ACE-2 binding polypeptide FSPCKALRHSPWWVCPSG (peptide)
peptide: FSPCKALRHSPWWVCPSG
modifications: not fully specified (N-terminus, C-terminus, bridges); cysteine pairing not given here
B11: ACE-2 binding polypeptide NPECGALFCMEF (peptide)
peptide: NPECGALFCMEF
modifications: not fully specified (bridges); cysteine pairing not given here
B12: ACE-2 binding polypeptide YNFCMLIGERDYCLDF (peptide)
peptide: YNFCMLIGERDYCLDF
modifications: not fully specified (bridges); cysteine pairing not given here
B13: ACE-2 binding polypeptide LHDCFIYADYEYCFDF (peptide)
peptide: LHDCFIYADYEYCFDF
modifications: not fully specified (bridges); cysteine pairing not given here
B14: ACE-2 binding polypeptide SDYCVGNNAVTYCFDF (peptide)
peptide: SDYCVGNNAVTYCFDF
modifications: not fully specified (bridges); cysteine pairing not given here
B15: ACE-2 binding polypeptide SNDCVWLQFWGGDMCFLP (peptide)
peptide: SNDCVWLQFWGGDMCFLP
modifications: not fully specified (bridges); cysteine pairing not given here
B16: ACE-2 binding polypeptide GGQCGTSYLFCIDF (peptide)
peptide: GGQCGTSYLFCIDF
modifications: not fully specified (bridges); cysteine pairing not given here
B17: ACE-2 binding polypeptide DDDCGWIGFANFHLCLHG (peptide)
peptide: DDDCGWIGFANFHLCLHG
modifications: not fully specified (N-terminus, C-terminus, bridges); cysteine pairing not given here
B18: ACE-2 binding polypeptide HLDCYNLVDNMFCFDF (peptide)
peptide: HLDCYNLVDNMFCFDF
modifications: not fully specified (bridges); cysteine pairing not given here
B19: ACE-2 binding polypeptide YSGCADMYMFCIDF (peptide)
peptide: YSGCADMYMFCIDF
modifications: not fully specified (bridges); cysteine pairing not given here
B20: ACE-2 binding polypeptide EGNCFLIGPWCFEF (peptide)
peptide: EGNCFLIGPWCFEF
modifications: not fully specified (N-terminus, C-terminus, bridges); cysteine pairing not given here
B21: ACE-2 binding polypeptide HIECEEWGYWCIEM (peptide)
peptide: HIECEEWGYWCIEM
modifications: not fully specified (bridges); cysteine pairing not given here
B22: ACE-2 binding polypeptide DDYCFNISSYSYCFDF (peptide)
peptide: DDYCFNISSYSYCFDF
modifications: not fully specified (bridges); cysteine pairing not given here
B23: ACE-2 binding polypeptide DFGCNAMFCVEF (peptide)
peptide: DFGCNAMFCVEF
modifications: not fully specified (bridges); cysteine pairing not given here
B24: ACE-2 binding polypeptide AWDCEWNLFDSTFFCPGF (peptide)
peptide: AWDCEWNLFDSTFFCPGF
modifications: not fully specified (bridges); cysteine pairing not given here
B25: ACE-2 binding polypeptide DNLCMSGGSFDYCFDF (peptide)
peptide: DNLCMSGGSFDYCFDF
modifications: not fully specified (bridges); cysteine pairing not given here
B26: ACE-2 binding polypeptide YDNCLGLANLNFCFDF (peptide)
peptide: YDNCLGLANLNFCFDF
modifications: not fully specified (N-terminus, C-terminus, bridges); cysteine pairing not given here
B27: ACE-2 binding polypeptide YEDCIGHALFCMTF (peptide)
peptide: YEDCIGHALFCMTF
modifications: not fully specified (N-terminus, C-terminus, bridges); cysteine pairing not given here
B28: ACE-2 binding polypeptide FDDCQTSWFQGFWLCIDD (peptide)
peptide: FDDCQTSWFQGFWLCIDD
modifications: not fully specified (bridges); cysteine pairing not given here
B29: ACE-2 binding polypeptide NADCEWVNFNHVDLCMWN (peptide)
peptide: NADCEWVNFNHVDLCMWN
modifications: not fully specified (bridges); cysteine pairing not given here
B30: ACE-2 binding polypeptide DDDCMMLPLTMFCFDF (peptide)
peptide: DDDCMMLPLTMFCFDF
modifications: not fully specified (bridges); cysteine pairing not given here
B31: ACE-2 binding polypeptide YFACTNNDSYLFCLDF (peptide)
peptide: YFACTNNDSYLFCLDF
modifications: not fully specified (bridges); cysteine pairing not given here
B32: ACE-2 binding polypeptide PNQCGVDIWALFCVDF (peptide)
peptide: PNQCGVDIWALFCVDF
modifications: not fully specified (bridges); cysteine pairing not given here
B33: ACE-2 binding polypeptide NHHCLEFSSFEYCFDF (peptide)
peptide: NHHCLEFSSFEYCFDF
modifications: not fully specified (bridges); cysteine pairing not given here
B34: ACE-2 binding polypeptide DDHCEWASYWKWDLCLHD (peptide)
peptide: DDHCEWASYWKWDLCLHD
modifications: not fully specified (N-terminus, C-terminus, bridges); cysteine pairing not given here
B35: ACE-2 binding polypeptide FHDCSWGPWGPWEICTRL (peptide)
peptide: FHDCSWGPWGPWEICTRL
modifications: not fully specified (bridges); cysteine pairing not given here
B36: ACE-2 binding polypeptide NLDCIYLQNHSYCFDF (peptide)
peptide: NLDCIYLQNHSYCFDF
modifications: not fully specified (bridges); cysteine pairing not given here

target: T1, FLAG-tagged ACE-2 target (human, UniProt Q9BYF1 18-740); assay: phage ELISA on FLAG-ACE-2
T1 construct: range 1-740; obtained from Human Genome Sciences, Inc; also called FLAG-ACE-2; tagged human ACE-2; not shown: FLAG tag
T1 sequence (Q9BYF1 18-740 limits assumed): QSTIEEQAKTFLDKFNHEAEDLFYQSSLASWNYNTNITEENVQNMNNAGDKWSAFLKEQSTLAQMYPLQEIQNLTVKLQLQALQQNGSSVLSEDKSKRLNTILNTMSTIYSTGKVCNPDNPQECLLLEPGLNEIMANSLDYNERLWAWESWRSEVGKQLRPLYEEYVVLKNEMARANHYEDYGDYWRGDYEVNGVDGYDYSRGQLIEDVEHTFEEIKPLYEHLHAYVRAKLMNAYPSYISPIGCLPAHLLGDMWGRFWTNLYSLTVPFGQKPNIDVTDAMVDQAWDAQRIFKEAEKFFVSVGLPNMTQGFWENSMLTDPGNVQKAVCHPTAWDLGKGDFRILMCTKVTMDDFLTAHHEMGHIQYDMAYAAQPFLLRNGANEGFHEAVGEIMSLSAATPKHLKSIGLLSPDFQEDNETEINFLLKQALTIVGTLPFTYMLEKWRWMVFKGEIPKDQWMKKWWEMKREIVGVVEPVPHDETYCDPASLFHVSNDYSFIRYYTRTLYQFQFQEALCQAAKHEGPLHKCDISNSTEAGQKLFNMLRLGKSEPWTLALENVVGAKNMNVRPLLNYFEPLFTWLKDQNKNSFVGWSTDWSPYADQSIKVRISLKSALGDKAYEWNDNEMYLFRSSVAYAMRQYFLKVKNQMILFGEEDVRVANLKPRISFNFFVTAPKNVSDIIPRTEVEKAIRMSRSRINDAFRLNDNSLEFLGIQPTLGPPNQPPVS
Method: Phage enriched from the third round of selection were screened by ELISA for strong ACE-2 binders. Immulon 2 96-well plates (Dynatech) were coated with streptavidin for 1 hour at 37° C. and subsequently coated with anti-FLAG antibody for 1 hour at room temperature. Half of the plates were further coated with FLAG-ACE-2 as the target plates, and the other half of the plates were coated with FLAG peptide as background plates. The amount of each protein or peptide coated was 100 ng per well. The coated plates were then incubated for 1 hour at room temperature with 1:2 diluted overnight phage cultures that were made by inoculating phage from individual plaques into bacterial host cells. After being washed 7 times with PBST, the plates were incubated with HRP-conjugated anti-M13 antibody (Pharmacia) for 1 hour at room temperature, washed 5 times, developed with TMB peroxidase substrate solution (Kirkegaad & Perry Laboratories, Gaithersburg, Md.), and read at 630 nm on an ELISA plate reader.

Binding result, binds:
B1
B2
B3
B4
B5
B6
B7
B8
B9
B10
B11
B12
B13
B14
B15
B16
B17
B18
B19
B20
B21
B22
B23
B24
B25
B26
B27
B28
B29
B30
B31
B32
B33
B34
B35
B36
